Tested on: Escherichia coli TOP10
Assay: shrunken log2 fold change of peptide-encoding DNA abundance (4.5 h post-induction vs induction); higher = less antimicrobial activity (less host growth inhibition)
Settings: time post-induction: 4.5 h; library: site-saturation at positions 5, 18, 19, 20
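Further: peptides expressed intracellularly from a pBAD plasmid library in pooled LB shake-flask culture, induced with 0.3% L-arabinose, DNA abundance read by NGS, three biological replicates, DESeq2 with apeglm shrinkage.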

Going from RRIRFRPPRLPRPRPRPSLVPRP to RRIRFRPPRLPRPRPRPSLYPRP, the “shrunken log2 fold change” value falls from -0.167 to -0.594.

Compared with RRIRFRPPRLPRPRPRPSMRPRP, RRIRFRPPRLPRPRPRPSQGPRP is lower in “shrunken log2 fold change” value: 0.377 for the first, -0.117 for the second.

Going from RRIRFRPPRLPRPRPRPSQLPRP to RRIRFRPPRLPRPRPRPSQPPRP, the “shrunken log2 fold change” value rises from -0.462 to -0.0776.

RRIRFRPPRLPRPRPRPSTWPRP and RRIRFRPPRLPRPRPRPSWEPRP are within 0.2 log units of each other in “shrunken log2 fold change” value: -0.000934 for the first, -0.0476 for the second.

RRIRFRPPRLPRPRPRPSWPPRP and RRIRFRPPRLPRPRPRPTCWPRP are within 0.2 log units of each other in “shrunken log2 fold change” value: -0.0802 for the first, 0.0659 for the second.

RRIRFRPPRLPRPRPRPTDKPRP and RRIRFRPPRLPRPRPRPTEKPRP are within 0.2 log units of each other in “shrunken log2 fold change” value: 0.00702 for the first, -0.0949 for the second.

RRIRFRPPRLPRPRPRPTERPRP and RRIRFRPPRLPRPRPRPTESPRP are within 0.2 log units of each other in “shrunken log2 fold change” value: -0.22 for the first, -0.154 for the second.

RRIRFRPPRLPRPRPRPTEWPRP and RRIRFRPPRLPRPRPRPTFTPRP are within 0.2 log units of each other in “shrunken log2 fold change” value: 0.00734 for the first, -0.157 for the second.

RRIRFRPPRLPRPRPRPTGMPRP and RRIRFRPPRLPRPRPRPTHCPRP are within 0.2 log units of each other in “shrunken log2 fold change” value: 0.00753 for the first, -0.0892 for the second.

Compared with RRIRFRPPRLPRPRPRPTHDPRP, RRIRFRPPRLPRPRPRPTHGPRP is lower in “shrunken log2 fold change” value: 0.241 for the first, -0.0666 for the second.

Compared with RRIRFRPPRLPRPRPRPTHIPRP, RRIRFRPPRLPRPRPRPTKDPRP is higher in “shrunken log2 fold change” value: -0.496 for the first, -0.196 for the second.

RRIRFRPPRLPRPRPRPTLQPRP and RRIRFRPPRLPRPRPRPTLSPRP are within 0.2 log units of each other in “shrunken log2 fold change” value: -0.107 for the first, 0.0323 for the second.

Going from RRIRFRPPRLPRPRPRPTMHPRP to RRIRFRPPRLPRPRPRPTPKPRP, the “shrunken log2 fold change” value rises from -0.138 to 0.681.

RRIRFRPPRLPRPRPRPTQDPRP and RRIRFRPPRLPRPRPRPTQPPRP are within 0.2 log units of each other in “shrunken log2 fold change” value: 0.33 for the first, 0.202 for the second.

Going from RRIRFRPPRLPRPRPRPTQRPRP to RRIRFRPPRLPRPRPRPTQVPRP, the “shrunken log2 fold change” value falls from 0.98 to -0.284.

Compared with RRIRFRPPRLPRPRPRPTTFPRP, RRIRFRPPRLPRPRPRPTVVPRP is higher in “shrunken log2 fold change” value: -0.388 for the first, 0.174 for the second.

RRIRFRPPRLPRPRPRPTYAPRP and RRIRFRPPRLPRPRPRPTYVPRP are within 0.2 log units of each other in “shrunken log2 fold change” value: -0.203 for the first, -0.137 for the second.

Compared with RRIRFRPPRLPRPRPRPVCTPRP, RRIRFRPPRLPRPRPRPVETPRP is higher in “shrunken log2 fold change” value: -0.324 for the first, -0.0497 for the second.

Going from RRIRFRPPRLPRPRPRPVFCPRP to RRIRFRPPRLPRPRPRPVFIPRP, the “shrunken log2 fold change” value falls from -0.0281 to -0.811.

RRIRFRPPRLPRPRPRPVFQPRP and RRIRFRPPRLPRPRPRPVGCPRP are within 0.2 log units of each other in “shrunken log2 fold change” value: 0.071 for the first, -0.0325 for the second.

First: RRIRFRPPRLPRPRPRPVHGPRP
Second: RRIRFRPPRLPRPRPRPVITPRP
The “shrunken log2 fold change” value of the first is higher: 0.284 for the first, -0.666 for the second.

RRIRFRPPRLPRPRPRPVKVPRP and RRIRFRPPRLPRPRPRPVLDPRP are within 0.2 log units of each other in “shrunken log2 fold change” value: -0.297 for the first, -0.474 for the second.

RRIRFRPPRLPRPRPRPVLEPRP and RRIRFRPPRLPRPRPRPVNAPRP are within 0.2 log units of each other in “shrunken log2 fold change” value: 0.00555 for the first, 0.135 for the second.

Going from RRIRFRPPRLPRPRPRPVNCPRP to RRIRFRPPRLPRPRPRPVNFPRP, the “shrunken log2 fold change” value falls from -0.15 to -0.39.

Compared with RRIRFRPPRLPRPRPRPVNMPRP, RRIRFRPPRLPRPRPRPVPFPRP is higher in “shrunken log2 fold change” value: -1.23 for the first, -0.102 for the second.

Going from RRIRFRPPRLPRPRPRPVPNPRP to RRIRFRPPRLPRPRPRPVQPPRP, the “shrunken log2 fold change” value rises from -0.0743 to 0.246.

RRIRFRPPRLPRPRPRPVRQPRP and RRIRFRPPRLPRPRPRPVSLPRP are within 0.2 log units of each other in “shrunken log2 fold change” value: 0.0478 for the first, -0.00718 for the second.

RRIRFRPPRLPRPRPRPVSPPRP and RRIRFRPPRLPRPRPRPVSSPRP are within 0.2 log units of each other in “shrunken log2 fold change” value: -0.172 for the first, -0.371 for the second.

Going from RRIRFRPPRLPRPRPRPVTCPRP to RRIRFRPPRLPRPRPRPVVLPRP, the “shrunken log2 fold change” value rises from -0.491 to 0.0119.

Going from RRIRFRPPRLPRPRPRPVWIPRP to RRIRFRPPRLPRPRPRPWAEPRP, the “shrunken log2 fold change” value rises from -0.0471 to 0.212.

RRIRFRPPRLPRPRPRPWAFPRP and RRIRFRPPRLPRPRPRPWEIPRP are within 0.2 log units of each other in “shrunken log2 fold change” value: -0.161 for the first, -0.0062 for the second.

RRIRFRPPRLPRPRPRPWEWPRP and RRIRFRPPRLPRPRPRPWFSPRP are within 0.2 log units of each other in “shrunken log2 fold change” value: 0.0781 for the first, -0.0536 for the second.

First: RRIRFRPPRLPRPRPRPWFVPRP
Second: RRIRFRPPRLPRPRPRPWGDPRP
The “shrunken log2 fold change” value of the first is lower: -0.283 for the first, 0.00532 for the second.

RRIRFRPPRLPRPRPRPWGNPRP and RRIRFRPPRLPRPRPRPWGQPRP are within 0.2 log units of each other in “shrunken log2 fold change” value: 0.117 for the first, 0.0397 for the second.

RRIRFRPPRLPRPRPRPWGYPRP and RRIRFRPPRLPRPRPRPWHQPRP are within 0.2 log units of each other in “shrunken log2 fold change” value: -0.164 for the first, -0.338 for the second.

RRIRFRPPRLPRPRPRPWIEPRP and RRIRFRPPRLPRPRPRPWIGPRP are within 0.2 log units of each other in “shrunken log2 fold change” value: -0.224 for the first, -0.398 for the second.

Going from RRIRFRPPRLPRPRPRPWIHPRP to RRIRFRPPRLPRPRPRPWKDPRP, the “shrunken log2 fold change” value rises from -0.804 to -0.192.

For RRIRFRPPRLPRPRPRPWKFPRP, the “shrunken log2 fold change” value was 0.0664.
